Experimental findings from article PMC4118443 (2014) are described below.

For the assay, the target named is T1, NS5A 347-361 (Hepatitis C virus, UniProt P26664).
T1 chain: PKSPPVPPPRKKRTV
Description: fluorescence titration.

B1: Bin1 SH3 (protein)
chain: LPPGFMFKVQAQHDYTATDTDELQLKAGDVVLVIPFQNPEEQDEGWLMGVKESDWNQHKELEKCRGVFPENFTERVP
The Kd is the concentration at which binding is half-saturated. In the case of B1, the Kd amounted to 200 nM.
